This is an account of results in paper doi:10.1101/2025.09.11.675682 (2025).

A word on the Kd: it is a measure of binding affinity in units of concentration. High values mean weaker binding, low ones tighter binding.

First the molecules themselves.
B1: PLC-γ1 (Phospholipase C-γ1), 1–1219 (enzyme)
chain: MAGAASPCANGCGPGAPSDAEVLHLCRSLEVGTVMTLFYSKKSQRPERKTFQVKLETRQITWSRGADKIEGAIDIREIKEIRPGKTSRDFDRYQEDPAFRPDQSHCFVILYGMEFRLKTLSLQATSEDEVNMWIKGLTWLMEDTLQAPTPLQIERWLRKQFYSVDRNREDRISAKDLKNMLSQVNYRVPNMRFLRERLTDLEQRSGDITYGQFAQLYRSLMYSAQKTMDLPFLEASTLRAGERPELCRVSLPEFQQFLLDYQGELWAVDRLQVQEFMLSFLRDPLREIEEPYFFLDEFVTFLFSKENSVWNSQLDAVCPDTMNNPLSHYWISSSHNTYLTGDQFSSESSLEAYARCLRMGCRCIELDCWDGPDGMPVIYHGHTLTTKIKFSDVLHTIKEHAFVASEYPVILSIEDHCSIAQQRNMAQYFKKVLGDTLLTKPVEISADGLPSPNQLKRKILIKHKKLAEGSAYEEVPTSMMYSENDISNSIKNGILYLEDPVNHEWYPHYFVLTSSKIYYSEETSSDQGNEDEEEPKEVSSSTELHSNEKWFHGKLGAGRDGRHIAERLLTEYCIETGAPDGSFLVRESETFVGDYTLSFWRNGKVQHCRIHSRQDAGTPKFFLTDNLVFDSLYDLITHYQQVPLRCNEFEMRLSEPVPQTNAHESKEWYHASLTRAQAEHMLMRVPRDGAFLVRKRNEPNSYAISFRAEGKIKHCRVQQEGQTVMLGNSEFDSLVDLISYYEKHPLYRKMKLRYPINEEALEKIGTAEPDYGALYEGRNPGFYVEANPMPTFKCAVKALFDYKAQREDELTFIKSAIIQNVEKQEGGWWRGDYGGKKQLWFPSNYVEEMVNPVALEPEREHLDENSPLGDLLRGVLDVPACQIAIRPEGKNNRLFVFSISMASVAHWSLDVAADSQEELQDWVKKIREVAQTADARLTEGKIMERRKKIALELSELVVYCRPVPFDEEKIGTERACYRDMSSFPETKAEKYVNKAKGKKFLQYNRLQLSRIYPKGQRLDSSNYDPLPMWICGSQLVALNFQTPDKPMQMNQALFMTGRHCGYVLQPSTMRDEAFDPFDKSSLRGLEPCAISIEVLGARHLPKNGRGIVCPFVEIEVAGAEYDSTKQKTEFVVDNGLNPVWPAKPFHFQISNPEFAFLRFVVYEEDMFSDQNFLAQATFPVKGLKTGYRAVPLKNNYSEDLELASLLIKIDIFPAKENGD

What all share (assay): ITC
The target of experiment [1] is SLP-76 PRR peptide (aa 185–200), high affinity mutant (UniProt Q13094 185-200).
Experiment [2] addresses T1, LAT 125-178 (Homo sapiens, UniProt O43561).
T1 chain: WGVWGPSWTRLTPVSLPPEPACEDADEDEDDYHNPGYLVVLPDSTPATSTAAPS

The target in experiment [3] is T2, SLP-76 159-533 (Homo sapiens, UniProt Q13094).
T2 chain: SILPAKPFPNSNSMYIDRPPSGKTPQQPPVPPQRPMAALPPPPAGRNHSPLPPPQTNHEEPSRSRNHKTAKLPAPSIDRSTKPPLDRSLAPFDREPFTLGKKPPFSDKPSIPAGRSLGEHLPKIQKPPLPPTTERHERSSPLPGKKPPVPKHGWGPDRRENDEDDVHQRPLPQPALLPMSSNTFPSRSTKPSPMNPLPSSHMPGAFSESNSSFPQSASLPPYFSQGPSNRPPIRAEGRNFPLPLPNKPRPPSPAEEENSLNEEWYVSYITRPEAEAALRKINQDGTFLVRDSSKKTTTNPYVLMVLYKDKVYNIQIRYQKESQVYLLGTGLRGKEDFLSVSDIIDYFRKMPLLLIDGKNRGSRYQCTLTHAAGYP

In experiment [4] the target is B1.

B1 displayed a Kd in experiment [1] of 1 µM.

B2: PLC-γ1 1-1219 (protein)
chain: MAGAASPCANGCGPGAPSDAEVLHLCRSLEVGTVMTLFYSKKSQRPERKTFQVKLETRQITWSRGADKIEGAIDIREIKEIRPGKTSRDFDRYQEDPAFRPDQSHCFVILYGMEFRLKTLSLQATSEDEVNMWIKGLTWLMEDTLQAPTPLQIERWLRKQFYSVDRNREDRISAKDLKNMLSQVNYRVPNMRFLRERLTDLEQRSGDITYGQFAQLYRSLMYSAQKTMDLPFLEASTLRAGERPELCRVSLPEFQQFLLDYQGELWAVDRLQVQEFMLSFLRDPLREIEEPYFFLDEFVTFLFSKENSVWNSQLDAVCPDTMNNPLSHYWISSSHNTYLTGDQFSSESSLEAYARCLRMGCRCIELDCWDGPDGMPVIYHGHTLTTKIKFSDVLHTIKEHAFVASEYPVILSIEDHCSIAQQRNMAQYFKKVLGDTLLTKPVEISADGLPSPNQLKRKILIKHKKLAEGSAYEEVPTSMMYSENDISNSIKNGILYLEDPVNHEWYPHYFVLTSSKIYYSEETSSDQGNEDEEEPKEVSSSTELHSNEKWFHGKLGAGRDGRHIAERLLTEYCIETGAPDGSFLVRESETFVGDYTLSFWRNGKVQHCRIHSRQDAGTPKFFLTDNLVFDSLYDLITHYQQVPLRCNEFEMRLSEPVPQTNAHESKEWYHASLTRAQAEHMLMRVPRDGAFLVRKRNEPNSYAISFRAEGKIKHCRVQQEGQTVMLGNSEFDSLVDLISYYEKHPLYRKMKLRYPINEEALEKIGTAEPDYGALYEGRNPGFYVEANPMPTFKCAVKALFDYKAQREDELTFIKSAIIQNVEKQEGGWWRGDYGGKKQLWFPSNYVEEMVNPVALEPEREHLDENSPLGDLLRGVLDVPACQIAIRPEGKNNRLFVFSISMASVAHWSLDVAADSQEELQDWVKKIREVAQTADARLTEGKIMERRKKIALELSELVVYCRPVPFDEEKIGTERACYRDMSSFPETKAEKYVNKAKGKKFLQYNRLQLSRIYPKGQRLDSSNYDPLPMWICGSQLVALNFQTPDKPMQMNQALFMTGRHCGYVLQPSTMRDEAFDPFDKSSLRGLEPCAISIEVLGARHLPKNGRGIVCPFVEIEVAGAEYDSTKQKTEFVVDNGLNPVWPAKPFHFQISNPEFAFLRFVVYEEDMFSDQNFLAQATFPVKGLKTGYRAVPLKNNYSEDLELASLLIKIDIFPAKENGD
modifications: pY132, pY171
In experiment [2], B2 had a Kd of 0.084 µM.

B3: Gads 1-322 (protein)
chain: MEAVAKFDFTASGEDELSFHTGDVLKILSNQEEWFKAELGSQEGYVPKNFIDIQFPKWFHEGLSRHQAENLLMGKEVGFFIIRASQSSPGDFSISVRHEDDVQHFKVMRDNKGNYFLWTEKFPSLNKLVDYYRTNSISRQKQIFLRDRTREDQGHRGNSLDRRSQGGPHLSGAVGEEIRPSMNRKLSDHPPTLPLQQHQHQPQPPQYAPAPQQLQQPPQQRYLQHHHFHQERRGGSLDINDGHCGTGLGSEMNAALMHRRHTDPVQLQAAGRVRWARALYDFEALEDDELGFHSGEVVEVLDSSNPSWWTGRLHNKLGLFPA
For the molecule B3, the equilibrium dissociation constant (Kd) in experiment [3] is 0.0036 µM.

B4: Gads 1-322 (protein)
chain: MEAVAKFDFTASGEDELSFHTGDVLKILSNQEEWFKAELGSQEGYVPKNFIDIQFPKWFHEGLSRHQAENLLMGKEVGFFIIRASQSSPGDFSISVRHEDDVQHFKVMRDNKGNYFLWTEKFPSLNKLVDYYRTNSISRQKQIFLRDRTREDQGHRGNSLDRRSQGGPHLSGAVGEEIRPSMNRKLSDHPPTLPLQQHQHQPQPPQYAPAPQQLQQPPQQRYLQHHHFHQERRGGSLDINDGHCGTGLGSEMNAALMHRRHTDPVQLQAAGRVRWARALYDFEALEDDELGFHSGEVVEVLDSSNPSWWTGRLHNKLGLFPA
modifications: pY132, pY171
In turn, B4 yielded a dissociation constant (Kd) in experiment [2] of 0.213 µM.
Molecule QPPVPPQRPMAALPPP [SLP-76 PRR peptide (aa 185–200), wild type] gave a Kd in experiment [4] of 2.36 µM.
